What was measured:
[1] = substrate: Oc1ccc(Br)cc1; assay: purified protein; settings: reduced methyl viologen 0.5 mM / Ti(III) citrate 1.4 mM, 100 mM Tris-HCl pH 7.5, 22 °C, no NH4+, kcat at Table 1
[2] = substrate: Oc1ccc(Br)cc1Br; assay: purified protein; settings: reduced methyl viologen 0.5 mM / Ti(III) citrate 1.4 mM, 100 mM Tris-HCl pH 7.5, 22 °C, no NH4+, kcat at Table 1, kcat includes further reduction to phenol

B1: PceA (PceA–Strep) (Sulfurospirillum multivorans) (protein)
chain: AEKEKNAAEIRQQFAMTAGSPIIVNDKLERYAEVRTAFTHPTSFFKPNYKGEVKPWFLSAYDEKVRQIENGENGPKMKAKNVGEARAGRALEAAGWTLDINYGNIYPNRFFMLWSGETMTNTQLWAPVGLDRRPPDTTDPVELTNYVKFAARMAGADLVGVARLNRNWVYSEAVTIPADVPYEQSLHKEIEKPIVFKDVPLPIETDDELIIPNTCENVIVAGIAMNREMMQTAPNSMACATTAFCYSRMCMFDMWLCQFIRYMGYYAIPSCNGVGQSVAFAVEAGLGQASRMGACITPEFGPNVRLTKVFTNMPLVPDKPIDFGVTEFCETCKKCARECPSKAITEGPRTFEGRSIHNQSGKLQWQNDYNKCLGYWPESGGYCGVCVAVCPFTKGNIWIHDGVEWLIDNTRFLDPLMLGMDDALGYGAKRNITEVWDGKINTYGLDADHFRDTVSFRKDRVKKS
B1 gave a Km [1] of 99 µM, a kcat [1] of 809 s⁻¹ and a Km [2] of 95 µM. It also gave a kcat [2] of 252 s⁻¹.
